{"source": "patent US20060153778A1", "about": "(MannKind Corporation, priority 2005, published 2006)", "key": {"[1]": {"details": "in vivo"}, "[2]": {"details": "in vivo", "remark": "listed apart in the source"}, "[3]": {"assay": "Glucose clamp study after inhalation of Technosphere/Insulin: glucose infusion rate (biological action), tolerability", "format": "in vivo, human", "details": "for T-50% (time from baseline to half-maximal after passing Tmax), calculated on glucose infusion rate / Tmax, calculated on glucose infusion rate / T50% (time from baseline to half-maximal values), calculated on glucose infusion rate: glucose clamp; for T50% (time from baseline to half-maximal values), calculated on glucose infusion rate: healthy male volunteers", "excerpt": "(§1) The volunteers were in good health, as judged by physical examination, age: 18 to 40 years, body mass index: 18 to 26 kg/m^2, capability to reach peak inspiratory flow of ≧4 L/sec measured by a computer assisted spirometry and a FEV1 (FEV1=forced expiratory volume in one second) equal to or greater than 80% of predicted normal.\n(§2) On the morning of the study days, the subjects came to the hospital (fasting, except for water, from midnight onward) at 7:30 a.m. The subjects were restricted from excessive physical activities and an intake of alcohol for 24 hours before each treatment day. They were randomly assigned to one of the three treatment arms. […] Blood glucose was kept constant at a level of 90 mg/dL throughout the glucose clamp by a glucose controlled infusion system (BIOSTATOR™, Life Science Instruments, Miles Laboratories, Elkhart, Ind.). The glucose clamp algorithm was based on the actual measured blood glucose concentration and the grade of variability in the minutes before to calculate the glucose infusion rates for keeping the blood glucose concentration constant. […] The duration of the clamp experiment was 6 hours from time point 0. Glucose infusion rates, blood glucose, serum insulin and C-peptide were measured."}, "[4]": {"assay": "Glucose clamp study: serum insulin concentrations, bioavailability", "format": "in vivo, human", "excerpt": "as §1\nas §2, with “0.” for “0. Glucose infusion rates, blood glucose, serum insulin and C-peptide were measured.”"}, "[5]": {"assay": "Time to peak blood concentration and uptake rate after pulmonary delivery (general statements)"}}, "note": "Like-named read-outs stand apart in the source and are kept apart here."}
{"compound": "O=C(O)/C=C/C(=O)NCCCC[C@@H]1NC(=O)[C@H](CCCCNC(=O)/C=C/C(=O)O)NC1=O", "note": "[FDKP, fumaryl diketopiperazine]", "values": [{"measurement": "Transit from the lungs", "setting": "[1]", "result": "kinetics similar to that of insulin"}]}
{"compound": "CCNC(=O)[C@@H]1CCCN1C(=O)[C@H](CCCNC(=N)N)NC(=O)[C@H](CC(C)C)NC(=O)[C@@H](CC(C)C)NC(=O)[C@H](Cc1ccc(O)cc1)NC(=O)[C@H](CO)NC(=O)[C@H](Cc1c[nH]c2ccccc12)NC(=O)[C@H](Cc1c[nH]cn1)NC(=O)[C@@H]1CCC(=O)N1", "note": "[leuprolide]", "values": [{"measurement": "Time to peak blood concentrations", "setting": "[2]", "result": "3 to 10", "unit": "min"}]}
{"compound": "insulin: insulin given as 5 IU intravenous or 10 IU subcutaneous injection, or by the pulmonary route without fumaryl diketopiperazine; comparator", "values": [{"measurement": "T to baseline, calculated on glucose infusion rate", "setting": "[3]; 5 IU insulin intravenous, clamp duration 6 hours", "result": 240, "unit": "min"}, {"measurement": "T-50% (time from baseline to half-maximal after passing Tmax), calculated on glucose infusion rate", "setting": "[3]; 5 IU insulin intravenous", "result": 1.37, "unit": "h"}, {"measurement": "Tmax, calculated on glucose infusion rate", "setting": "[3]; 5 IU insulin intravenous", "result": 0.233, "unit": "h"}, {"measurement": "T50% (time from baseline to half-maximal values), calculated on glucose infusion rate", "setting": "[3]; 5 IU insulin intravenous", "result": 9, "unit": "min"}, {"measurement": "T-50% (time from baseline to half-maximal after passing Tmax), calculated on glucose infusion rate", "setting": "[3]; 10 IU insulin subcutaneous", "result": 4, "unit": "h"}, {"measurement": "Tmax, calculated on glucose infusion rate", "setting": "[3]; 10 IU insulin subcutaneous", "result": 2.72, "unit": "h"}, {"measurement": "T50% (time from baseline to half-maximal values), calculated on glucose infusion rate", "setting": "[3]; 10 IU insulin subcutaneous", "result": 60, "unit": "min"}, {"measurement": "T50% (time from baseline to half-maximal values), calculated on insulin levels", "setting": "[4]; 5 IU insulin intravenous", "result": 2, "unit": "min"}, {"measurement": "T to baseline, calculated on insulin levels", "setting": "[4]; 5 IU insulin intravenous", "result": 60, "unit": "min"}, {"measurement": "T-50% (time from baseline to half-maximal after passing Tmax), calculated on insulin levels", "setting": "[4]; 5 IU insulin intravenous", "result": 0.1, "unit": "h"}, {"measurement": "Tmax, calculated on insulin levels", "setting": "[4]; 5 IU insulin intravenous", "result": 0.083, "unit": "h"}, {"measurement": "T to baseline, calculated on insulin levels", "setting": "[4]; 10 IU insulin subcutaneous", "result": 360, "unit": "min"}, {"measurement": "T-50% (time from baseline to half-maximal after passing Tmax), calculated on insulin levels", "setting": "[4]; 10 IU insulin subcutaneous", "result": 4.17, "unit": "h"}, {"measurement": "Tmax, calculated on insulin levels", "setting": "[4]; 10 IU insulin subcutaneous", "result": 2.02, "unit": "h"}, {"measurement": "Time to peak blood concentrations", "setting": "[5]; pulmonary route without fumaryl diketopiperazine", "result": "25 to 60", "unit": "min"}, {"measurement": "Time to peak blood level", "setting": "[5]; subcutaneous injection", "result": "30 to 90", "unit": "min"}]}
{"compound": "parathyroid hormone 1-34: peptide complexed with FDKP for pulmonary delivery", "values": [{"measurement": "Time to peak blood concentrations", "setting": "[2]", "result": "3 to 10", "unit": "min"}]}
{"compound": "salmon calcitonin", "values": [{"measurement": "Time to peak blood concentrations", "setting": "[2]", "result": "3 to 10", "unit": "min"}]}
